Laboratory results as given in IntAct's records for PubMed 23446637.

B1: IQ calmodulin-binding motif-containing protein 1 (Homo sapiens), Q15051 (parent)
chain: MKPTGTDPRILSIAAEVAKSPEQNVPVILLKLKEIINITPLGSSELKKIKQDIYCYDLIQYCLLVLSQDYSRIQGGWTTISQLTQILSHCCVGLEPGEDAEEFYNELLPSAAENFLVLGRQLQTCFINAAKAEEKDELLHFFQIVTDSLFWLLGGHVELIQNVLQSDHFLHLLQADNVQIGSAVMMMLQNILQINSGDLLRIGRKALYSILDEVIFKLFSTPSPVIRSTATKLLLLMAESHQEILILLRQSTCYKGLRRLLSKQETGTEFSQELRQLVGLLSPMVYQEVEEQKLHQAACLIQAYWKGFQTRKRLKKLPSAVIALQRSFRSKRSKMLLEINRQKEEEDLKLQLQLQRQRAMRLSRELQLSMLEIVHPGQVEKHYREMEEKSALIIQKHWRGYRERKNFHQQRQSLIEYKAAVTLQRAALKFLAKCRKKKKLFAPWRGLQELTDARRVELKKRVDDYVRRHLGSPMSDVVSRELHAQAQERLQHYFMGRALEERAQQHREALIAQISTNVEQLMKAPSLKEAEGKEPELFLSRSRPVAAKAKQAHLTTLKHIQAPWWKKLGEESGDEIDVPKDELSIELENLFIGGTKPP

Variants of: B1
Settings: with ce290_human CEP290, O15078
Chain of ce290_human CEP290, O15078 (O15078 whole entry): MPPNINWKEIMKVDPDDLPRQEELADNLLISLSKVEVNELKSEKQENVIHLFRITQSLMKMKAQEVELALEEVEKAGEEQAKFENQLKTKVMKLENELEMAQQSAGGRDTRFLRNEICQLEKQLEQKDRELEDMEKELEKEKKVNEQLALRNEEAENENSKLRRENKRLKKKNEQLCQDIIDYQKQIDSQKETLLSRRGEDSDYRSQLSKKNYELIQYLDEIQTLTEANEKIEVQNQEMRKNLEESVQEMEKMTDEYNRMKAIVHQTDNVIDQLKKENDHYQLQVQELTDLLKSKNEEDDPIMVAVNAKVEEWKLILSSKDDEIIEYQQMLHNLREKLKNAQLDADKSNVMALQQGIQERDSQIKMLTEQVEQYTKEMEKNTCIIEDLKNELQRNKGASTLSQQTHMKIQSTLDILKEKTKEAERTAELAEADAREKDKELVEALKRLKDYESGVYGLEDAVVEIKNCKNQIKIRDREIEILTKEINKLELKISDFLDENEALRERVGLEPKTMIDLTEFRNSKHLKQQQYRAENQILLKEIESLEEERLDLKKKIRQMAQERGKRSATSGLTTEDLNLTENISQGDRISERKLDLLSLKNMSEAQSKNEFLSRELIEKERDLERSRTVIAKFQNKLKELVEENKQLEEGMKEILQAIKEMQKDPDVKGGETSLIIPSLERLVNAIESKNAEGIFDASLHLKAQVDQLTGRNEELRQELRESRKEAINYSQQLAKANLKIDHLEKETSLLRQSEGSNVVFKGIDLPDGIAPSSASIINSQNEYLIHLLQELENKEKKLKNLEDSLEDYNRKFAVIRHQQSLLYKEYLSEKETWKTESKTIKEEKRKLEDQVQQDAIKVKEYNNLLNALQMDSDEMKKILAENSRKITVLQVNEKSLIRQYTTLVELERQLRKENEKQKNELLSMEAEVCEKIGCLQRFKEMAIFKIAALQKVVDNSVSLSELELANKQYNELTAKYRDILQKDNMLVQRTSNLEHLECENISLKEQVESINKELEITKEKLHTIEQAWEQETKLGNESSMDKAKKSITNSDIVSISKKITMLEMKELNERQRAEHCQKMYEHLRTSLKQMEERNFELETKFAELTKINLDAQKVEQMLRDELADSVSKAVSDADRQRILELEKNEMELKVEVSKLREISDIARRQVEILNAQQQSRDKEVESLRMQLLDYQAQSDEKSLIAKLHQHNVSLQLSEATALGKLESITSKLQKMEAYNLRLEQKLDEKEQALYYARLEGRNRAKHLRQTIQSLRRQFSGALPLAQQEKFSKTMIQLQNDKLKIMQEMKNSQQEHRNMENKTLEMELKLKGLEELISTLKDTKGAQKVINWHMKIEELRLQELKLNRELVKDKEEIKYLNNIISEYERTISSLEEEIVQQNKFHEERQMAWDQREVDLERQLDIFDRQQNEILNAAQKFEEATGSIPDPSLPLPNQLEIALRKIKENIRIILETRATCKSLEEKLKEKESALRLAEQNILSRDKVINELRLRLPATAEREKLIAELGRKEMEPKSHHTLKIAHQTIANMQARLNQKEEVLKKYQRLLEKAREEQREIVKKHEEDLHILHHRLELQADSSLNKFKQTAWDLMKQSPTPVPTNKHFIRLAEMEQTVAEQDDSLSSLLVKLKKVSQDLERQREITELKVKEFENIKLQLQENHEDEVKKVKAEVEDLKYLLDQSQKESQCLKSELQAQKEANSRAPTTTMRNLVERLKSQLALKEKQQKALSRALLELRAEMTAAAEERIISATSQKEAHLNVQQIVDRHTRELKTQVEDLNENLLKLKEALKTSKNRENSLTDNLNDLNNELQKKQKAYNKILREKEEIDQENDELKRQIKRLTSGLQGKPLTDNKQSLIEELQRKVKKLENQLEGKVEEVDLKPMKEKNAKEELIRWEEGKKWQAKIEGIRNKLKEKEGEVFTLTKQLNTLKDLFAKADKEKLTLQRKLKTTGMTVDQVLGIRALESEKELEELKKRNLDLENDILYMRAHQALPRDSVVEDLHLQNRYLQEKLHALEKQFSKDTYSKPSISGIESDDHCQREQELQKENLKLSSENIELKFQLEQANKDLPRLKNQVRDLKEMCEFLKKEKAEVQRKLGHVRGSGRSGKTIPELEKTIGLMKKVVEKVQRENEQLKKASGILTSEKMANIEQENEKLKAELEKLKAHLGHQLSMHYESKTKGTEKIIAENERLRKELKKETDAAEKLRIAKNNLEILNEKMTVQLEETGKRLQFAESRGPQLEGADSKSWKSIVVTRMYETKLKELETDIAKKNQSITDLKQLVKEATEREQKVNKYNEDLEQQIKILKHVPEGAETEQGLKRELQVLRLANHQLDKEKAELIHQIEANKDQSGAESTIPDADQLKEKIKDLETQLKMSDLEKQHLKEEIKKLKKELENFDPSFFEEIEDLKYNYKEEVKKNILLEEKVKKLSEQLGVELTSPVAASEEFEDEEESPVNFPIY

Variant	effect of a mutation on the interaction
A549K	disrupting interaction
